Patent US20250339501A1, “COMPOSITIONS AND METHODS FOR TREATING METABOLIC DISEASE” (The Regents of the University of California, priority 2021, published 2025)
Entries after “also recorded” stand apart in the source; their conditions may differ. Read-outs that look alike come from different tables or passages of the source.

Legend:
[1] = tested on: C2C12 myotubes; assay: Dj1 release from muscle cells into culture medium; assay type: cell-based, mouse; conditions: for protein level of Dj1 in the media: C2C12 myotubes with or without CCCP, Tg; for muscle cell release of Dj1: in vitro (C2C12 myotubes) and ex vivo muscle
Method: Seeded cells were cultured in 6-well plates for 24 hours prior to transfection. Transfections were performed using Lipofectamine 2000 and PLUS reagent according to manufacturer instructions (Invitrogen, Carlsbad, CA). Human HepG2 cells were cultured in DMEM/low media containing 10% fetal bovine serum with penicillin/streptomycin. Mouse AML12 cells were maintained in DMEM/F12, ITS supplement (Gibco, USA), 40 ng/ml dexamethasone, and 10% fetal bovine serum with penicillin/streptomycin.
An adenovirus encoding mouse Dj1 was generated using the ViraPower Adenoviral Expression System (Invitrogen) according to manufacturer instructions. […] Entry clones were obtained by recombination of the purified DNA fragment with the pDONR221 vector using Gateway BP clonase II. Mouse Dj1 insert was transferred from the entry clones into the pAd/CMV/V5-DEST vector (Invitrogen) using the Gateway LR Clonase II enzyme mix. The recombinant adenoviral purified plasmid was used to generate adenoviral particles according to the manufacturer's instructions (Invitrogen). Adenoviral titer was determined using the AdenoX Rapid Titer Kit (Clontech).
(§1) Mouse tissue and cell samples were pulverized in liquid nitrogen and homogenized in RIPA lysis buffer containing complete EDTA-Free protease (Roche) and Phosphatase Inhibitor Cocktail 2 (Sigma-Aldrich, St. Louis, MO). All lysates were centrifuged, clarified, and resolved by SDS-PAGE. […] Densitometric analyses were performed using BioRad Quantity One image software (Bio-Rad, Hercules, CA).
(§2) Mouse serum Dj1 and CK were measured by mouse Park7/DJ-1 DuoSet ELISA (DY8136, R&D systems) and mouse CKMB/Creatine Kinase MB ELISA Kit (LS-F5745, LSBio) respectively. Mouse Serum AST and ALT were measured by AST activity assay kit (Sigma, MAK055) and ALT activity assay kit (Sigma, MAK052) respectively.
Strenuous exercise increases the endoplasmic reticulum (ER) stress, which at an excessive level can lead to muscle damage (12). […] To determine the mechanisms that drive skeletal muscle releases of Dj1, ER stress markers were examined in skeletal muscles of the three different mouse models described above. […] To further validate muscle cells release of Dj1, in vitro studies were assessed.
(§3) Extracellular vesicles are cell-derived membranous structures including exosomes and microvesicles bodies, which are enriched with proteins, lipids, DNA, and RNA (14). To examine whether Dj1 is released through the extracellular vesicle system, Dj1 levels were determined in the culture media of C2C12 myotubes that were treated with or without CCCP, Tg, exosome generation inhibitor GW4869, or exocytosis inhibitor Exo1. […] To visualize the release of Dj1 from muscle cells, time-lapse imaging was performed on C2C12 myocytes transfected with Dj1-GFP. […] To further determine which types of extracellular vesicles were enriched with Dj1, microvesicle bodies (MVBs) and exosomes from C2C12 culture media and CTX-treated mouse plasma were separated by differential centrifugation.

[2] = tested on: C2C12 myocytes; assay: Time-lapse imaging of Dj1-GFP transfected C2C12 myocytes; assay type: cell-based, mouse
Method: Before image analysis, raw .czi files were automatically processed into deconvoluted Airyscan images using Zen software. Time-lapse images were acquired at approximately 1 frame/second.
as §3

[3] = tested on: C57BL/6J mice; assay: Plasma Dj1 after intramuscular CTX injection; assay type: in vivo, mouse; conditions: 2 days post intramuscular administration
Method: as §2
Cardiotoxin (CTX) induces skeletal muscle injury and regeneration. To further validate the effect of muscle injury on circulating Dj1, C57BL/6J mice were injected intramuscularly with CTX, and plasma Dj1 levels were measured 2 days post-administration.

[4] = tested on: cleaved caspase 3; conditions: C2C12 myocytes
Method: as §1

[5] = tested on: HFD-fed mice; assay: rDj1 or tDj1 intravenous every other day for 14 days in HFD-fed mice; assay type: in vivo, mouse
Method: C57BL/10cSn-Dmd^mdx/J (001801, mdx) and C57BL/10ScSnJ (000476, WT) mice were ordered directly from The Jackson Laboratory. Different ages of mdx and WT mice were obtained. Animals were weaned 21 days after birth and had free access to food and water and were housed on 12 h light-dark cycle. C57BL/6J males were introduced to a normal diet (NC, Research Diets D15100601) or high-fat diet (HFD, Research Diets D12331), and maintained on a diet for the indicated time. The HFD diet derives 58% of its kilocalories (kcal) from fat (soybean and coconut oil), 25.5% from carbohydrates (sucrose and maltodextrin), and 16.4% from protein (casein). NASH model mice were fed for up to 28 weeks with the NASH diet (Envigo, TD.120528) and 42% fructose (Sigma, F0127) in the water (1,2). The NASH diet is composed of 405.36 g/Kg sucrose and 12.5 g/Kg cholesterol. Recombinant mouse Dj1 protein (Novus, NBP2-59523) or truncated mouse Dj1 (tDj1, GenScript) protein was intravenously injected every day for 5 days or every other day for 2 weeks. Skeletal muscle-specific Park7 knockout mice were generated by crossing Park7 flox mice with Myl1-cre mice (JAX, #024713). Mice were raised in microisolator cages with a 12 h: 12 h light: dark cycle. All procedures were performed in accordance with the Guide for Care and Use of Laboratory Animals of the National Institutes of Health, and were approved by the Animal Subjects Committee of the University of California, Los Angeles.
Cryosections (10-μm thick transverse sections of frozen muscle cut in a cryostat (Leica) at −20° C.) were subjected to hematoxylin & eosin (H&E) staining (10, 54). Liver tissues were fixed in phosphate-buffered 10% formalin and embedded in paraffin wax. Sections were cut and stained with H&E.
as §2
Plasma and liver NEFA, Cholesterol, and Triglyceride were analyzed by their respective kits (FUJIFILM Wako Diagnostics)
About 80 mg of liver samples were homogenized and sonicated in PBS (pH 7.4) for lipid extraction. An internal standard mixture (ISTD) and CHCl3:methanol (2:1) were added to the samples before being vortexed, mixed, sonicated, and centrifuged. The supernatant containing the lipid was removed and dried, the lipids were resuspended in ethanol and then sonicated.
(§4) Dj1 is a highly conserved protein that is ubiquitously expressed in most mammalian tissues. It belongs to the Dj1/ThiJ/PfpI family chaperones, and its expression is induced by oxidative stress (20,21). To determine whether the PfpI domain of Dj1 exerts a similar role as the full-length Dj1 protein (rDj1) in liver cells, truncated Dj1 (tDj1) comprising of only the PfpI domain was purified (FIG. 5O). HFD-fed mice were intravenous injected with rDj1 or tDj1 every other day for 14 days.

[6] = tested on: AML12 cells; assay: TG and NEFA content in palmitate acid-treated AML12 cells; assay type: cell-based, mouse
Method: Mouse myoblast cells (C2C12) were maintained in high glucose DMEM/high, 10% fetal bovine serum with penicillin/streptomycin. pRK5-Dj1-HA plasmid was purchased from Addgene (#29396). Seeded cells were cultured in 6-well plates for 24 hours prior to transfection. Transfections were performed using Lipofectamine 2000 and PLUS reagent according to manufacturer instructions (Invitrogen, Carlsbad, CA). Human HepG2 cells were cultured in DMEM/low media containing 10% fetal bovine serum with penicillin/streptomycin. Mouse AML12 cells were maintained in DMEM/F12, ITS supplement (Gibco, USA), 40 ng/ml dexamethasone, and 10% fetal bovine serum with penicillin/streptomycin. For in vitro experiments, HepG2 cells were treated with or without recombinant human Dj1 protein (Novus, NBC1-18334) in serum-free media containing 25 mM glucose, 200 μM palmitic acid, and 0.25% bovine serum albumin for an indicated time.
as §4

[7] = tested on: JNK; assay: JNK phosphorylation immunoblot in liver of HFD-fed mice; assay type: in vivo, mouse
Excerpt: (§5) As described above, Dj1 administration stimulates AMPK phosphorylation in the liver cells. However, elevated AMPK phosphorylation in vivo was not observed (data not shown). Numerous studies have reported that the c-Jun N terminal kinase (JNK) is critical to the development of steatosis and chronic liver injury in NAFLD (22-25). […] However, not all MAPK pathways were activated. For example, phosphorylation of p42 was not altered by tDj1 treatment (FIG. 6O). Both rDj1 and tDj1 suppressed TNFα and Anisomycin-induced JNK (p54 and p46) phosphorylation in human HepG2 and mouse AML12 liver cells, respectively (FIGS. 6C-6D).

[8] = tested on: p38; assay: p38 phosphorylation immunoblot in liver of HFD-fed mice; assay type: in vivo, mouse
Excerpt: as §5

[9] = tested on: p42; assay: p42 phosphorylation immunoblot in liver of HFD-fed mice; assay type: in vivo, mouse
Excerpt: as §5

[10] = tested on: JNK; assay: Anisomycin-induced JNK phosphorylation in AML12 cells; assay type: cell-based; conditions: mouse AML12 liver cells
Excerpt: as §5

[11] = tested on: ASK1; assay: ASK1 phosphorylation immunoblot, in vitro and in liver of HFD-fed mice; parameters: species or system mouse; conditions: in vitro and in vivo; liver of HFD-fed WT mice
Excerpt: A wide variety of mechanisms activate the JNK pathway. […] Moreover, ASK1 is activated by various stresses, including oxidative stress, ER stress, calcium overload, and receptor-mediated inflammatory signals such as TNFα and lipopolysaccharide (LPS) (26,27). rDj1 administration suppressed both baseline and TNFα-induced ROS levels in HepG2 cells, which may contribute to reducing liver inflammation (FIG. 6F).

[12] = tested on: NASH diet-fed mice; assay: tDj1 administration in NASH diet-fed mice
Method: Animals were weaned 21 days after birth and had free access to food and water and were housed on 12 h light-dark cycle. C57BL/6J males were introduced to a normal diet (NC, Research Diets D15100601) or high-fat diet (HFD, Research Diets D12331), and maintained on a diet for the indicated time. […] NASH model mice were fed for up to 28 weeks with the NASH diet (Envigo, TD.120528) and 42% fructose (Sigma, F0127) in the water (1,2). […] Mice were raised in microisolator cages with a 12 h: 12 h light: dark cycle. All procedures were performed in accordance with the Guide for Care and Use of Laboratory Animals of the National Institutes of Health, and were approved by the Animal Subjects Committee of the University of California, Los Angeles.

## COC(=O)c1ccccc1NC(=O)c1ccc(F)cc1 [Exo1]
[1]
  protein level of Dj1 in the media: significantly reduced

## O=C(/C=C/c1ccc(/C=C/C(=O)Nc2ccc(C3=NCCN3)cc2)cc1)Nc1ccc(C2=NCCN2)cc1 [GW4869]
[1]
  protein level of Dj1 in the media: significantly reduced

## C/C=C(/C)C(=O)O[C@H]1C(C)=C2[C@H]([C@@H]1OC(=O)CCCCCCC)[C@@](C)(OC(C)=O)C[C@H](OC(=O)CCC)[C@@]1(O)[C@H]2OC(=O)[C@@]1(C)O [Thapsigargin]
[1]
  muscle cell release of Dj1: release Dj1
[2]; Dj1-GFP transfected C2C12 myocytes, time-lapse imaging
  budding of vesicles from cells: Robust budding of vesicles

## Cardiotoxin [CTX]
[3]
  Dj1 in the plasma: increase

## carbonyl cyanide m-chlorophenyl hydrazine [CCCP]
[1]; C2C12 myocytes / myotubes
  Dj1 levels in the culture medium: elevated
[1]; C2C12 myocytes transfected with HA-tagged Dj1
  HA-Dj1 levels in the media: elevated
[1]
  muscle cell release of Dj1: release Dj1
[4]
  protein level of cleaved caspase 3: did not alter
[2]
  budding of vesicles from cells: Robust budding of vesicles

B1: tDj1: truncated mouse Dj1 comprising only the PfpI domain, residues 32-173 per b12, SEQ ID NO: 3 (GenScript) (protein, listed as Mus musculus)
chain: KVTVAGLAGKDPVQCSRDVMICPDTSLEDAKTQGPYDVVVLPGGNLGAQNLSESPMVKEILKEQESRKGLIAAICAGPTALLAHEVGFGCKVTTHPLAKDKMMNGSHYSYSESRVEKDGLILTSRGPGTSFEFALAIVE
[5]
  level of TG in the liver: significantly reduced
  liver histology, lipid accumulation: less lipid accumulation
  plasma ALT levels: reducing
  plasma AST levels: reducing
[6]
  TG levels: reduced
[7]
  JNK (p46 subunit) phosphorylation: significantly reduced
[8]
  p38 phosphorylation: decreased
[9]
  phosphorylation of p42: not altered
[10]
  Anisomycin-induced JNK (p54 and p46) phosphorylation: suppressed; also recorded: inhibits
[11]
  phosphorylation of apoptosis signal-regulating kinase 1 (ASK1): reduced; also recorded: inhibits
[12]; NASH diet-fed mice
  TG levels in the liver: did not considerably reduce
  fibrosis scores: significantly reduced
  hepatic apoptosis (TUNEL assay): suppressed
  liver ALT activity: robustly reduced
  total cholesterol level in the liver: significantly suppressed
[12]; liver of NASH diet-fed mice
  inflammatory gene expression: significantly reduced
  liver fibrosis gene expression: significantly reduced
  protein levels of apoptosis markers (cleaved caspase 3, cleaved caspase 8, cleaved caspase 9, cleaved PARP): decreased
[12]; mice on NASH diet for 28 weeks
  body weight: significantly reduced
  glucose tolerance: improved
  insulin tolerance: improved
